Results: PMC8523169, “Competitive binding of MatP and topoisomerase IV to the MukB hinge domain”
Positions count from the first letter of the chain named.

T1: MatP4E (Escherichia coli, UniProt P0A8N0 1-132, K71E;Q72E;R75E;R77E)
T1 sequence: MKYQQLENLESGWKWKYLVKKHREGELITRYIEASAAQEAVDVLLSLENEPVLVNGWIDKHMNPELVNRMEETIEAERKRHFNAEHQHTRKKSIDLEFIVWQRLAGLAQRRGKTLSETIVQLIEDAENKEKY

T2: MatP (MatPΔ18C) (Escherichia coli, UniProt P0A8N0 1-132)
T2 sequence: T1 sequence with E71K, E72Q, E75R, E77R

B1: 50 bp nonspecific DNA (dsDNA)
DNA 1: CAGAGTTAATCACAACGGTTCTCGATCATCAAAGAAAAACAAGCTGTGCG
DNA 2: CGCACAGCTTGTTTTTCTTTGATGATCGAGAACCGTTGTGATTAACTCTG
B2: 50 bp matS DNA (dsDNA)
DNA 1: CAGAGTTAATCAGAACGGTGACAATGTCACAAAGAAAAAGAACCTGTGCG
DNA 2: CGCACAGGTTCTTTTTCTTTGTGACATTGTCACCGTTCTGATTAACTCTG

Legend:
MatP4E = biological target: T1, MatP4E; assay: EMSA (native PAGE); 1 mM Mg2+; Native PAGE: 50 mM HEPES pH 7.5, 100 mM NaCl, 1 mM MgCl2, 1 mM DTT, 10% glycerol, on ice 30 min; FCS: 20 mM Tris-HCl pH 7.5, 50 mM NaCl, 0.3 mg/mL BSA, 2 mM DTT, 0.05% Tween-20, 22 °C; nMS buffer not given in the material; conditions: protein: recombinant; tags: C-terminal 6xHis; chain copies: 2; blunt
MatP (MatPΔ18C) = biological target: T2, MatP (MatPΔ18C); assay: native MS; Native PAGE: 50 mM HEPES pH 7.5, 100 mM NaCl, 1 mM MgCl2, 1 mM DTT, 10% glycerol, on ice 30 min; FCS: 20 mM Tris-HCl pH 7.5, 50 mM NaCl, 0.3 mg/mL BSA, 2 mM DTT, 0.05% Tween-20, 22 °C; nMS buffer not given in the material; conditions: protein: recombinant; tags: C-terminal 6xHis; chain copies: 2; blunt

Row | Binder | binding result (MatP4E) | binding result (MatP (MatPΔ18C))
1 | B1 | no binding | –
2 | B2 | no binding | binds
